Test results as given in patent publication US20150274802A1 (INDIANA UNIVERSITY RESEARCH AND TECHNOLOGY, published 2015).
Ends that are not written are not given here.

Experiments:
human insulin receptor [1] = target: T1, human insulin receptor (human, UniProt P06213 28-1382); assay: competition SPA, [125I]insulin
T1 construct: whole, on cells; receptor-transfected HEK293 cells in the phosphorylation assay

human IGF-1 receptor [2] = target: T2, human IGF-1 receptor (human, UniProt P08069 31-1367); assay: cell-based or functional assay
human insulin receptor [3] = target: T1, human insulin receptor; assay: cell-based or functional assay
human IGF-1 receptor [4] = target: T2, human IGF-1 receptor; assay: cell-based or functional assay; remark: listed apart in the source

Binder	IC50 (human insulin receptor [1]) [nM]	% Insulin Activity (in vitro, assay not named) (human IGF-1 receptor [2]) [%]	potency in vitro against monomer #39 (human insulin receptor [3]) [fold]	Phosphorylation (EC50), % IGF-1 R (human IGF-1 receptor [4]) [%]
IGF1 (Y^B16L^B17) (ligand, also called IGF analog IGF1 (Y^B16L^B17)) chain 1: GIVDECCFRSCDLRRLEMYCA chain 2: GPETLCGAELVDALYLVCGDRGFYFNKPT	0.51	–	–	–
#57: Gly^B2-PEG20K-Gly^B2 #11 dimer (ligand, not fully specified (N-terminus); ends and bridges not checked; also: dimer: N-terminal amines of two chains joined by bifunctional 20K PEG linker) GPEHLCGAHLVDALYLVCGDRGFYGYGSSSRRAPQTGIVDECCHRSCDLRRLENYCN	–	2.6	~5	2.6
